Patent US20250388696A1 (NAVIGO PROTEINS, published 2025)
Where no end group is shown, it is not given here.

target: T1, mouse serum albumin (mouse, UniProt P07724 25-608); experiment: SPR, MSA immobilised
T1 construct: also called MSA
Procedure: Recombinant protein A, HSA, MSA or target (either ED-B or Her2) was immobilized on a High Capacity Amine sensor chip (Bruker) after NHS/EDC activation with a Sierra SPR-32 system (Bruker). The chip was equilibrated with SPR running buffer (PBS 0.05%, Tween pH 7.3). Injection of ethanolamine after target immobilization was used to block free NHS groups. To determine the binding of fusion proteins to FAP, the Fc-tagged target was injected with 60 or 30 nM to Protein A coupled spots followed by the injection of fusion proteins.
Binding proteins were applied to the chip in serial dilutions with a flow rate of 30 μl/min. Upon binding, analyte accumulated on the surface increasing the refractive index. This change in the refractive index was measured in real time and plotted as response or resonance units versus time. The association was performed for 120 seconds and the dissociation for 180 seconds. After each run, the chip surface was regenerated with 30 μl regeneration buffer (10 mM glycine pH 2.0 or pH 1.5) and equilibrated with running buffer. Binding studies were carried out using the Sierra SPR-32 system (Bruker); data evaluation was operated via the Sierra Analyser software, provided by the manufacturer, by the use of the Langmuir 1:1 model (RI=0).

Binder	Kd
LAEAKVLALKELDKYGISNYYKNLINNAKTIEGVKALKDAIVAA (designed binder, not shown: small tags and cut ends, also: part of fusion protein, targeting moiety, linker, tag and order not given here) [Fusion proteins with albumin binding domain of SEQ ID NO: 5]	< 10 nM
LAEAKVLALKELDKYGISNYYKNLINNAKTIEGVKALKAAIVAA (designed binder, not shown: small tags and cut ends, also: part of fusion protein, targeting moiety, linker, tag and order not given here) [Fusion proteins with albumin binding domain of SEQ ID NO: 21]	< 16 nM
LAEAKVLALKELDKYGISNYYKNLINNAKTIEGVKALKEAIVAA (designed binder, not shown: small tags and cut ends, also: part of fusion protein, targeting moiety, linker, tag and order not given here, also called c19) [Fusion proteins with albumin binding domain of SEQ ID NO: 23]	< 10 nM
LAEAKVLALKELDKYGISNYYKNLINNAKTIEGVEALKDAILAA (designed binder, not shown: small tags and cut ends, also: part of fusion protein, targeting moiety, linker, tag and order not given here, also called c24) [Fusion proteins with albumin binding domain of SEQ ID NO: 7]	< 10 nM
LAEAKVLALKELDKYGISNYYKNLINNAKTIEGVEALKEAIVAA (designed binder, not shown: small tags and cut ends, also: part of fusion protein, targeting moiety, linker, tag and order not given here) [Fusion proteins with albumin binding domain of SEQ ID NO: 25]	< 16 nM
LAEAKVLALKELDKYGISNYYKNLINNAKTIEGVKALKAQILAA (designed binder, not shown: small tags and cut ends, also: part of fusion protein, targeting moiety, linker, tag and order not given here) [Fusion proteins with albumin binding domain of SEQ ID NO: 22]	< 16 nM
LAEAKVLAIKELDKAGISDYYFNLINNAKTIEGVKALKAQIVAA (designed binder, not shown: small tags and cut ends, also: part of fusion protein, targeting moiety, linker, tag and order not given here) [Fusion proteins with albumin binding domain of SEQ ID NO: 13]	< 16 nM

Now from value to binder:

Kd	Binder
< 10 nM	LAEAKVLALKELDKYGISNYYKNLINNAKTIEGVEALKEAILAA (designed binder, not shown: small tags and cut ends, also: part of fusion protein, targeting moiety, linker, tag and order not given here) [Fusion proteins with albumin binding domain of SEQ ID NO: 26]
< 10 nM	LAEAKVLALKELDKYGISNYYKNLINNAKTIEGVKALKDEIVAA (designed binder, not shown: small tags and cut ends, also: part of fusion protein, targeting moiety, linker, tag and order not given here, also called c20) [Fusion proteins with albumin binding domain of SEQ ID NO: 6]
< 16 nM	LAEAKVLALKELDKYGISNYYKNLINNAKTIEGVEALKDAIVAA (designed binder, not shown: small tags and cut ends, also: part of fusion protein, targeting moiety, linker, tag and order not given here) [Fusion proteins with albumin binding domain of SEQ ID NO: 24]
